This note sets out measurements from article PMC8777244 (Biochemistry and Biophysics Reports, 2022).

Where two headings read alike, the source gives them in different places. Where no end group is shown, it is not given here. The star is where a group is joined. Dansyl = CN(C)c1cccc2c(S(=O)(=O)*)cccc12; MBP = maltose binding protein fusion

Series [1] deals with the molecule itself. The experiment in a line: SEC. Background: In gel filtration, larger molecules generally elute earlier.
Series [2] has as its target T1, recombinant 6xHis-tagged calmodulin (UniProt P0DP23 1-149). The experiment in a line: ITC.
Series [3] deals with Dansyl-labeled CaM (UniProt P0DP23 1-149, Dansyl label (site not stated)). The experiment in a line: other fluorescence titration.
Series [4] concerns the molecule itself. Put plainly: SEC. The source holds these as a separate data set.
In series [5] the target is T1, recombinant 6xHis-tagged calmodulin. The experiment in a line: other fluorescence titration.
Series [6] concerns the target N-terminal half domain of CaM (residues 1-75) fused to cyan fluorescent protein (UniProt P0DP23 1-75). Put plainly: ITC.
Series [7] has as its target T1, recombinant 6xHis-tagged calmodulin. Put plainly: ITC. This is another data set of the same source.
Series [8] concerns the target C-terminal half domain of CaM (residues 76-149) fused to blue fluorescent protein (UniProt P0DP23 76-149). Put plainly: ITC.
For series [9], the target named is T1, recombinant 6xHis-tagged calmodulin. Put plainly: ITC. This is another data set of the same source. For orientation: In ITC the heat of successive injections is recorded.
Series [10] has the same target. The experiment in a line: ITC. This is another data set of the same source.
The target is the same in series [11]. Put plainly: fluorescence polarisation. Background: Polarisation of emitted light reports the rotation of a fluorescent probe.
Series [12] has the same target. The experiment in a line: ITC. This is another data set of the same source.
Series [13] shares this target. Put plainly: other fluorescence titration. The source holds these as a separate data set.

B1: MBP-fused human Nox5β dehydrogenase domain residues 584-719 (domain or fragment, UniProt Q96PH1-4 584-719, looked up)
chain: KLHKVDFIWINRDQRSFEWFVSLLTKLEMDQAEEAQYGRFLELHMYMTSALGKNDMKAIGLQMALDLLANKEKKDSITGLQTRTQPGRPDWSKVFQKVAAEKKGKVQVFFCGSPALAKVLKGHCEKFGFRFFQENF
As a reminder, the stoichiometry N is a count of units in the complex or per binding partner. For the molecule B1, the “stoichiometry N” value is approximately 3 in [1], 0.89 [Peptide]/[Protein] in [3] and approximately 4 in series [4]. The Ka in series [2] turned out to be 933000 M⁻¹; in series [3], 1.82e+06 M⁻¹.

B2: MBP-fused human Nox5β dehydrogenase domain residues 665-719 (domain or fragment)
chain: {MBP}-TRTQPGRPDWSKVFQKVAAEKKGKVQVFFCGSPALAKVLKGHCEKFGFRFFQENF
modifications: cysteine pairing not given here
In the case of B2, in series [2], the Ka was 1.39e+06 M⁻¹. For the same molecule, in series [3], the Ka was found to be 4.9e+06 M⁻¹ and the “stoichiometry N” value is 0.92 [Peptide]/[Protein].
Take RPDWSKVFQKVAAEKKGKV [human Nox5β CaM-binding domain (CMBD) peptide, residues 671-689]: the Ka in series [5] turned out to be 1.71e+07 M⁻¹; in series [6], 2.42e+06 M⁻¹; in series [7] it was 878000 M⁻¹; in series [8], 950000 M⁻¹; in series [9], 1.02e+06 M⁻¹; in series [11], 8.64e+06 M⁻¹. Moreover, the “dH (per mole protein)” value in series [6] is -3.94 kcal/mol; in series [7], -6.94 kcal/mol; in [8], -4.02 kcal/mol. Moreover, the “stoichiometry N” value in series [6] is 0.89 [peptide]/Protein]; in [7], 1.82 [peptide]/Protein]; in [8], 1.04 [peptide]/Protein]; in series [10], 1.83. For the same molecule, the “dH (per mole CMBD)” value in [10] was -3.81 kcal/mol.

B3: MBP-fused human Nox5β dehydrogenase domain residues 528-719 (domain or fragment)
chain: PTRRIFASEHAVLIGAGIGITPFASILQSIMYRHQKRKHTCPSCQHSWIEGVQDNMKLHKVDFIWINRDQRSFEWFVSLLTKLEMDQAEEAQYGRFLELHMYMTSALGKNDMKAIGLQMALDLLANKEKKDSITGLQTRTQPGRPDWSKVFQKVAAEKKGKVQVFFCGSPALAKVLKGHCEKFGFRFFQENF
For B3, the Ka in series [2] worked out at 2.71e+06 M⁻¹. Moreover, in series [3], the Ka is 1.39e+06 M⁻¹ and the “stoichiometry N” value was 0.92 [Peptide]/[Protein].

B4: MBP-fused human Nox5β dehydrogenase domain residues 605-719 (domain or fragment)
chain: SLLTKLEMDQAEEAQYGRFLELHMYMTSALGKNDMKAIGLQMALDLLANKEKKDSITGLQTRTQPGRPDWSKVFQKVAAEKKGKVQVFFCGSPALAKVLKGHCEKFGFRFFQENF
For the molecule B4, the Ka in [12] was approximately 1e+06 M⁻¹; in [2], 894000 M⁻¹; in series [3], 2.52e+06 M⁻¹. Further, the “stoichiometry N” value in series [3] is 1.02 [Peptide]/[Protein].
Consider Dansyl-RPDWSKVFQKVAAEKKGKV [N-terminal Dansyl-labeled human Nox5β CMBD peptide], for which, in [13], the Ka was determined as 4.95e+06 M⁻¹.
